According to article doi:10.1101/2023.06.21.545551:

Target: MYC(352–437):MAX(22–102) heterodimer (human) (UniProt P61244)
Assay: NMR titration

Chain of MYC(352–437):MAX(22–102) heterodimer (human) (P61244 whole entry, looked up, tested part not stated, one chain of several): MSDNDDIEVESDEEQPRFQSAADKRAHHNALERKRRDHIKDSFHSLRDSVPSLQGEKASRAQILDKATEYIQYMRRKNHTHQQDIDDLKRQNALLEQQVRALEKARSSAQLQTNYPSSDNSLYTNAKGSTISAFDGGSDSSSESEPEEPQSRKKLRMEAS

Substance: MYC(11–34), Mb0 peptide
- Kd: 7 µM
